According to patent US20220160843A1 (priority 2019, published 2022):

B1: GN10: Native lysin, GenBank YP_002600773.1, SEQ ID NO: 22 (protein)
chain: MSKQGGVKVAQAVAALSSPGLKIDGIVGKATRAAVSSMPSSQKAATDKILQSAGIGSLDSLLAEPAAATSDTFREVVLAVAREARKRGLNPAFYVAHIALETGWGRSVPKLPDGRSSYNYAGLKYAAVKTQVKGKTETNTLEYIKSLPKTVRDSFAVFASAGDFSRVYFWYLLDSPSAYRYPGLKNAKTAQEFGDILQKGGYATDPAYAAKVASIASTAVARYGSDVSSVA
modifications: Pseudomonas phage phi2954
B2: GN9: Native lysin, GenBank ECJ78460.1, SEQ ID NO: 21 (protein)
chain: MKNFNEIIEHVLKHEGGYVNDPKDLGGETKYGITKRFYPDLDIKNLTIEQATEIYKKDYWDKNKVESLPQNLWHIYFDMCVNMGKRTAVKVLQRAAVNRGRDIEVDGGLGPATIGALKGVELDRVRAFRVKYYVDLITARPEQEKFYLGWFRRATEV
modifications: Marine metagenome
B3: GN108: Native lysin, GenBank YP_009288673.1, SEQ ID NO: 26 (protein)
chain: MILTKDGFSIIRNELFEGKLDQTQVDAINFIVEKATEYGLTYPEAAYLLATIYHETGLPSGYRTMQPIKEAGSDSYLRSKKYYPYIGYGYVQLTWEENYERIGKLIGIDLVKNPEKALEPLIAIQIAIKGMLNGWFTGVGFRRKRPVSKYNKQQYVAARNIINGKDKAELIAKYAIIFERALRSL
modifications: Acinetobacter phage phiAB6
B4: GN105: Native lysin, GenBank WP_016046696.1, SEQ ID NO: 25 (protein, listed as Pseudomonas aeruginosa)
chain: MAVVSEKTAGGRNVLAFLDMLAWSEGTSTIRGSDNGYNVVVGGGLFNGYADHPRLKVYLPRYKVYSTAAGRYQLLSRYWDAYRESLALKGGFTPSNQDLVALQQIKERRSLADIQAGRLADAVQKCSNIWASLPGAGYGQREHSLDDLTAHYLAAGGVLS

Experiments:
human erythrocytes = format: cell-based
Experimental: The hemolytic activity of the GN lysins was measured as the amount of hemoglobin released by the lysis of human erythrocytes (30). Briefly, 3 ml of fresh human blood cells (hRBCs) obtained from pooled healthy donors (BioreclamationIVT) in a polycarbonate tube containing heparin was centrifuged at 1,000×g for 5 min at 4° C. The erythrocytes obtained were washed three times with phosphate-buffered saline (PBS) solution (pH 7.2) and resuspended in […]. […] Intact erythrocytes were pelleted by centrifugation at 1,000×g for 5 min at 4° C., and the supernatant was transferred to a new 96-well plate. The release of hemoglobin was monitored by measuring the absorbance at 570 nm.

P. aeruginosa [1] = experiment: Time-kill assay of GN lysin activity; format: cell-based, Pseudomonas aeruginosa; details: for Log10 CFU/mL T = 3 hr / Log10 CFU/mL T = l hr: lysin 10 μg/mL, T = 0 7.8; for Log10 CFU/mL T = 3 hr: buffer control 7.2, limit of detection 3.7; for Log10 CFU/mL T = l hr: buffer control 7.7
Experimental: All treatments were incubated at 37° C. with aeration.

[2] = system: P. aeruginosa strain ATCC 17647; experiment: Minimal Biofilm Eradicating Concentration (MBEC), Calgary Biofilm Device; format: cell-based, Pseudomonas aeruginosa; details: 24 h biofilm, 24 h treatment; minimum concentration removing >95% of biofilm biomass (crystal violet)
Text: All samples were examined in triplicate.

P. aeruginosa [3] = experiment: Minimal inhibitory concentration (MIC), modified CLSI broth microdilution in CAA or CAA/HuS; format: cell-based, Pseudomonas aeruginosa; details: for MIC (μg/mL) in CAA: CAA media; for MIC (μg/mL in CAA/HuS): CAA supplemented with 25% human serum
[4] = system: carbapenem-resistant clinical strain, WC-452; experiment: Checkerboard assay to examine synergy with antibiotics in CAA/HuS; format: cell-based, P. aeruginosa
[5] = CAA/HuS, ‡ indicates bactericidal activity
[6] = HEPES buffer, ‡ indicates bactericidal activity

Row | Molecule | hemolytic activity (human erythrocytes) | Log10 CFU/mL T = 3 hr (P. aeruginosa [1]; [5]) | Log10 CFU/mL T = l hr (P. aeruginosa [1]; CAA/HuS) [Log10 CFU/mL] | Log10 CFU/mL T = 3 hr (P. aeruginosa [1]; [6]) | Log10 CFU/mL T = l hr (P. aeruginosa [1]; [6]) [Log10 CFU/mL] | MBEC [2] [µg/mL] | MIC (μg/mL) in CAA (P. aeruginosa [3]) [µg/mL] | MIC (μg/mL in CAA/HuS) (P. aeruginosa [3]) [µg/mL] | other results
1 | B1 | no hemolytic activity whatsoever | 7.4 Log10 CFU/mL | 7.4 | <3.7‡ Log10 CFU/mL | 5.7 | 0.5 | 8 | 16 | –
2 | B2 | no hemolytic activity whatsoever | 7.3 Log10 CFU/mL | 6.8 | 5.7 Log10 CFU/mL | 6.7 | 0.125 | 8 | 2 | –
3 | B3 | no hemolytic activity whatsoever | <3.7‡ Log10 CFU/mL | 5.7 | <3.7‡ Log10 CFU/mL | 6.4 | 0.125 | 8 | 8 | bactericidal activity in the time-kill assay format (P. aeruginosa [1]; 3-hour timepoint, 10 μg/mL, in either CAA/HuS or HEPES buffer): bactericidal activity; synergy with antibiotics in the checkerboard assay [4]: synergize with a range of antibiotics; FICI, Amikacin ([4]; lysin + amikacin): 0.156; FICI, Azithromycin ([4]; lysin + azithromycin): 0.060; FICI, Aztreonam ([4]; lysin + aztreonam): 0.250; FICI, Ciprofloxacin ([4]; lysin + ciprofloxacin): 0.281; FICI, Colistin ([4]; lysin + colistin): 0.133; FICI, Fosfomycin ([4]; lysin + fosfomycin): 0.188; FICI, Gentamicin ([4]; lysin + gentamicin): 0.188; FICI, Imipenem ([4]; lysin + imipenem): 0.039; FICI, Meropenem ([4]; lysin + meropenem): 0.250; FICI, Piperacillin ([4]; lysin + piperacillin): 0.531; FICI, Rifampicin ([4]; lysin + rifampicin): 0.125; FICI, Tobramycin ([4]; lysin + tobramycin): 0.188
4 | B4 | no hemolytic activity whatsoever | 6.3 Log10 CFU/mL | 7.0 | <3.7 Log10 CFU/mL | 6.6 | 4 | >128 | 32 | –
